In paper PMC9485262, “Structural characterization of a soil viral auxiliary metabolic gene product – a functional chitosanase” (Nature Communications, 2022):

Tests used:
[1] = molecular target: V-Csn (Viral Chitosanase), soil viral GH75 chitosanase AMG product (soil virus (predicted Proteobacteria phage; forest soil metagenome)); test: SEC; size exclusion chromatography of purified V-Csn in solution; conditions of this observation are not given (gel filtration in the purification used a Superdex HiLoad 26/60 column)
V-Csn = molecular target: T1, V-Csn (uncultured phage, UniProt Z9RE59BL32); test: X-ray crystal structure of co-crystal, […] A; format: binding; conditions: co-crystallised with about 5 mM chitohexaose, 0.2 M ammonium sulfate, 0.1 M sodium acetate pH 4.6, 30% MMePEG2000; active-site cleft; three of six GlcN residues modelled
T1 construct: model residues 1-224 plus linker GHS; dimer in solution

## V-Csn (Viral Chitosanase), soil viral GH75 chitosanase AMG product (enzyme)
[1]
  stoichiometry N: 2

## N[C@H]1[C@H](O[C@H]2[C@H](O)[C@@H](N)[C@H](O[C@H]3[C@H](O)[C@@H](N)[C@H](O[C@H]4[C@H](O)[C@@H](N)[C@H](O[C@H]5[C@H](O)[C@@H](N)[C@H](O[C@H]6[C@H](O)[C@@H](N)C(O)O[C@@H]6CO)O[C@@H]5CO)O[C@@H]4CO)O[C@@H]3CO)O[C@@H]2CO)O[C@H](CO)[C@@H](O)[C@@H]1O (some centres unmarked) [chitohexaose]
V-Csn
  X-ray crystal structure of co-crystal, 1.30 A: gave a complex with the E157Q mutant only
